From patent US20250034266A1 come the findings set out here.

Test [1] has as its target human CCR8 (human) (UniProt P51685). The test can be described thus: flow cytometry on TALL-1 cells (endogenous CCR8). For orientation: In flow cytometry, cells or beads pass a laser one at a time.
The target is the same in test [2]. The test can be described thus: FACS on HuT78 cells (endogenous human CCR8).
The target is the same in test [3]. The test can be described thus: FACS on CHO-K1-human CCR8 cells.
For test [4] the target is unchanged. The test can be described thus: FACS on HEK293-human CCR8 cells.
Test [5] shares this target. The test can be described thus: FACS, competition with CCL1 on CHO-K1-human CCR8 cells.
Test [6] has the same target. The test can be described thus: FACS on HEK293-human CCR8 cells. The source holds these as a separate data set.
Test [7] deals with cynomolgus CCR8 (cynomolgus) (UniProt G7NYJ2). The test can be described thus: FACS on HEK293-cynomolgus CCR8 cells.
Chain of cynomolgus CCR8 (cynomolgus) (G7NYJ2 entry or part of it): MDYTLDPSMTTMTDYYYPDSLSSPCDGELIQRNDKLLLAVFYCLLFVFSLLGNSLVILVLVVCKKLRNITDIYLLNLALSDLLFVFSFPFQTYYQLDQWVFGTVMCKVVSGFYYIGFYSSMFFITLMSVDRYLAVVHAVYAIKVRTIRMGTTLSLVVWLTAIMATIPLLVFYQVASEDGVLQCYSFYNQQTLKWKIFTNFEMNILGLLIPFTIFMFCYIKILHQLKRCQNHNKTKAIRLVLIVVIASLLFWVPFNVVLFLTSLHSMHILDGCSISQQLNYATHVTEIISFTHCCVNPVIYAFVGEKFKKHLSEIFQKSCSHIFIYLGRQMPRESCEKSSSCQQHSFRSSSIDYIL
Test [8] concerns the target human CCR8 (human) (UniProt P51685). The test can be described thus: FACS, competition with AF647-human CCL1 on CHO-K1-human CCR8 cells.
Test [9] deals with cynomolgus CCR8 (cynomolgus) (UniProt G7NYJ2). The test can be described thus: FACS on HEK293-cynomolgus CCR8 cells. The source holds these as a separate data set.
Test [10] addresses human CCR8 (human) (UniProt P51685). The test can be described thus: FACS on HuT78 cells (endogenous human CCR8). The source holds these as a separate data set.
The target of test [11] is T1, human CCR1 (human) (UniProt P32246).
T1 sequence (looked up): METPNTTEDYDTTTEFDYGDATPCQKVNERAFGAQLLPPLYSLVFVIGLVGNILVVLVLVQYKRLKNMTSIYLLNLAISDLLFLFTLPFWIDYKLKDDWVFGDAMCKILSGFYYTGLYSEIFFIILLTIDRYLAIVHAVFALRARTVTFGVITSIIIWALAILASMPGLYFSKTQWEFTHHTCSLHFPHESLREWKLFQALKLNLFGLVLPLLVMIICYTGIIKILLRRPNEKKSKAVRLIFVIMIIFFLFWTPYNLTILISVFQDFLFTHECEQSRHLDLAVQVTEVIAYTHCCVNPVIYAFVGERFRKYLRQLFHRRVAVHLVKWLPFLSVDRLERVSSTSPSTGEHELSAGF
The test can be described thus: FACS on ExpiCHO-S-human CCR1 cells.

In test [12] the target is cynomolgus CCR8 (cynomolgus) (UniProt G7NYJ2). The test can be described thus: FACS on HEK293-cynomolgus CCR8 cells. The source holds these as a separate data set.
Test [13] addresses human CCR8 (human) (UniProt P51685). The test can be described thus: FACS, competition with CCL1 on CHO-K1-human CCR8 cells. This is another data set of the same source.
In test [14] the target is cynomolgus CCR8 (cynomolgus) (UniProt G7NYJ2). The test can be described thus: FACS on ExpiCHO-S-cynomolgus CCR8 cells.
Test [15] addresses T2, human CCR4 (human) (UniProt P51679).
T2 sequence (looked up): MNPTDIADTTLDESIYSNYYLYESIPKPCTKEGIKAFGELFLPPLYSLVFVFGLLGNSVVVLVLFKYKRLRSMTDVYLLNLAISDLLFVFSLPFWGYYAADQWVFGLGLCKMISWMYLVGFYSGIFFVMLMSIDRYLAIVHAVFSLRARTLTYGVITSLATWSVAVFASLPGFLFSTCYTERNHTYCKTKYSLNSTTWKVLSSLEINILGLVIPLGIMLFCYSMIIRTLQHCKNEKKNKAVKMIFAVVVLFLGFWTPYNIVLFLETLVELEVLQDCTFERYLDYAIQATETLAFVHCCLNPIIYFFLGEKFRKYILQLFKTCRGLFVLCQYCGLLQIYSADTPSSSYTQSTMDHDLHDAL
The test can be described thus: FACS on ExpiCHO-S-human CCR4 cells.

In test [16] the target is human CCR8 (human) (UniProt P51685). The test can be described thus: FACS, competition with AF647-human CCL1 on CHO-K1-human CCR8 cells. The source holds these as a separate data set.
Chain of human CCR8 (human) (P51685 whole entry): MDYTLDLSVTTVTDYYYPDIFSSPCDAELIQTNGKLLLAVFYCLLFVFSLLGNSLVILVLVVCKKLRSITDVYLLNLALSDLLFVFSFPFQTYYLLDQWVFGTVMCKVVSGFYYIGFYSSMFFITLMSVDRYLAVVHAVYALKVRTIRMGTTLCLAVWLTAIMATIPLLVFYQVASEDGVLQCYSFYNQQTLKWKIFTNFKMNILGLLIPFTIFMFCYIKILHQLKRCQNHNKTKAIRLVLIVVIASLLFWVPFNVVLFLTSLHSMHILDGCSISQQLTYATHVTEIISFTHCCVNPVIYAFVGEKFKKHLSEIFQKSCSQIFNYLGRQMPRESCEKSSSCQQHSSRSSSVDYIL
For test [17] the target is unchanged. The description is as above. This is another data set of the same source.
For test [18] the target is unchanged. The test can be described thus: FACS on HEK293-human CCR8 cells. This is another data set of the same source.
The target of test [19] is cynomolgus CCR8 (cynomolgus) (UniProt G7NYJ2). The test can be described thus: FACS on HEK293-cynomolgus CCR8 cells. This is another data set of the same source.
Test [20] has as its target human CCR8 (human) (UniProt P51685). The test can be described thus: FACS, competition with AF647-human CCL1 on CHO-K1-human CCR8 cells. The source holds these as a separate data set.
The target is the same in test [21]. The test can be described thus: FACS on HEK293-human CCR8 cells. This is another data set of the same source.
Test [22] has as its target cynomolgus CCR8 (cynomolgus) (UniProt G7NYJ2). The test can be described thus: FACS on HEK293-Cynomolgus CCR8 cells.

Turning to HuIgG1-G1m Isotype (antibody), in [1], the Maximum MFI amounted to 5.96 MFI.
On to Human IgG1 (antibody), for which the Max MFI in test [2] worked out at 7820 MFI; in test [3], 3860 MFI; in test [4] it was 222 MFI; in test [6], 180 MFI; in test [7], 14300 MFI; in test [9], 120 MFI. In addition, the Max MFI in [10] amounted to 16900 MFI; in test [11], 20.3 MFI; in [12] it was 5690 MFI; in test [14], 13 MFI; in test [15], 7 MFI; in test [18], 167 MFI. Also, in test [19], the Max MFI turned out to be 331 MFI. Moreover, the Max Inhibition (%) was -4.58% in [5]; 27.4% in [8]; 17.8% in test [13]; -13% in test [16]; -4.1% in test [17].
For the substance Mouse IgG2a (antibody), the Max Inhibition (%) in test [20] is 12.3%; in test [8], 28.7%; in [16], -13.9%; in test [17] it was 2.1%. The Max MFI is 261 MFI in test [4]; 18 MFI in test [6]; 47 MFI in [7]; 158 MFI in [9]; 11 MFI in test [21]; 267 MFI in [11]. Also, the Max MFI is 5 MFI in [14], 6.6 MFI in test [15], 49 MFI in [18] and 40 MFI in test [19].
Regarding Mouse IgG2a isotype control (antibody), the values for the Max MFI in test [21] and in [22] were 349 MFI and 396 MFI, respectively.
